The target of data set [1] is FtsA (Escherichia coli) (UniProt P0ABH0). The data set can be described thus: TIRF colocalisation on supported lipid bilayers.
The target is the same in data set [2]. The experiment in a line: MST.
Data set [3] has as its target FtsZ/FtsA co-filaments on a supported lipid bilayer (Escherichia coli) (UniProt P0ABH0). The experiment in a line: TIRF colocalisation on supported lipid bilayers.
The target is the same in data set [4]. The data set can be described thus: single-molecule tracking by TIRF on supported lipid bilayers.
The data set “AUC” concerns the molecule itself. The data set can be described thus: AUC.

By Kd is commonly meant a measure of binding affinity in units of concentration. Low values mean higher affinity, high ones lower affinity.

With FtsZ (natural protein), the Pearson correlation coefficient of FtsA/FtsZ colocalisation with FtsA (Escherichia coli) [1] was 0.79.

FtsN_(cyto)His (peptide) yielded a Kd with FtsA (Escherichia coli) [2] of 324 nM. The molecule further yielded a Pearson correlation coefficient of colocalisation with FtsA with FtsA (Escherichia coli) [1] of 0.8. In data set [3], this molecule came in with a Pearson correlation coefficient of colocalisation with FtsZ of 0.86 and a fold lower colocalization efficiency with GMPCPP against GTP of 1.5 fold. In data set [4], this molecule registered an average duration of confinement of 0.41 s; a frequency of confinement events, fold over the DDEE mutant of 3 fold; a weight of the population with short displacements, fold over FtsN (cyto-DDEE)His of 3 fold; a weighted contribution of the confined population, fold over FtsN (cyto-DDEE)His of 2 fold.

With FtsN_(cyto-D5N)His (peptide), in the data set with FtsA (Escherichia coli) [2], the Kd was determined as 160 nM. The molecule further returned a Pearson correlation coefficient of colocalisation with FtsZ in data set [3] of 0.75.

FtsQ_(cyto)His (peptide): the Pearson correlation coefficient of colocalisation with FtsZ in data set [3] amounted to 0.4.

B1: full-length FtsN with a C-terminal oligohistidine tag (natural protein, Escherichia coli, UniProt P29131 1-319, looked up)
chain: MAQRDYVRRSQPAPSRRKKSTSRKKQRNLPAVSPAMVAIAAAVLVTFIGGLYFITHHKKEESETLQSQKVTGNGLPPKPEERWRYIKELESRQPGVRAPTEPSAGGEVKTPEQLTPEQRQLLEQMQADMRQQPTQLVEVPWNEQTPEQRQQTLQRQRQAQQLAEQQRLAQQSRTTEQSWQQQTRTSQAAPVQAQPRQSKPASSQQPYQDLLQTPAHTTAQSKPQQAAPVARAADAPKPTAEKKDERRWMVQCGSFRGAEQAETVRAQLAFEGFDSKITTNNGWNRVVIGPVKGKENADSTLNRLKMAGHTNCIRLAAGG
Consider B1, for which, in “AUC”, the binding result was “binds”.

The values above are taken from doi:10.1101/485656 (bioRxiv, 2018).
